From article PMC10663500, “High-throughput analysis system of interaction kinetics for data-driven antibody design” (Scientific Reports, 2023)

What was measured:
[1] = biological target: T1, human programmed cell death protein 1 (hPD-1) C93S (aa 24-167) (Homo sapiens, UniProt Q15116, C93S); assay: SPR; Carterra LSA; Fab from the ammonium sulfate precipitate of the culture supernatant immobilised on a NiHC200M chip; hPD-1 (1-1024 nM) or mPD-1-Fc (4-1024 nM) as analyte, fourfold dilution series, no regeneration; HBS-EP pH 7.4, 25 °C; medians over the spots of a construct, KD = koff/kon; settings: one partner purified
T1 construct: made as a fusion with a TEV site and human Fc; the Fc was cut off with TEV protease; source: Expi293F, purified (Protein A, TEV cleavage of Fc, SEC; monomer fractions); not shown: Fc (human), C-terminal, cleaved
Outline: (§1)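 On a Carterra LSA at 25 °C, duplicate captures of Fabs were made on a NiHC200M chip; the Fabs came from Brevibacillus culture supernatants, were precipitated with ammonium sulfate and were redissolved in HBS-EP. Fourfold series of human PD-1 (1–1024 nM) or mouse PD-1-Fc (4–1024 nM) were passed over without regeneration, with 10 min association and 5 min dissociation. Binders that were not confirmed were assigned kon 10^3 […] and koff 10^−2 s^−1. The kdka model, run with slow- or fast-dissociation settings and keeping the better fit, gave the rates, and KD was taken as koff/kon from the median values for each construct.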

[2] = biological target: T2, mouse programmed cell death protein 1 Fc fusion protein (mPD-1-Fc), mPD-1 C60S (aa 25-167) (Mus musculus, UniProt Q02242, stabilised); assay: as above; settings: one partner purified
T2 construct: not cleaved; source: Expi293F, purified (Protein A, SEC; dimeric fraction); not shown: Fc (human), C-terminal, kept
Outline: as §1

T1 sequence (Q15116 24-167 C93S): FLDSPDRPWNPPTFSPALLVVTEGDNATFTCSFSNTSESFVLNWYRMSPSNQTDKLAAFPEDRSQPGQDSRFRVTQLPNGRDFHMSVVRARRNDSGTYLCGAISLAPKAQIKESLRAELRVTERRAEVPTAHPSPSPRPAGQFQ

B1: toripalimab Fab L.R24Y (Fab, V domains shown)
VH: QGQLVQSGAEVKKPGASVKVSCKASGYTFTDYEMHWVRQAPIHGLEWIGVIESETGGTAYNQKFKGRVTITADKSTSTAYMELSSLRSEDTAVYYCAREGITTVATTYYWYFDVWGQGTTVTVSS
VL: DVVMTQSPLSLPVTLGQPASISCYSSQSIVHSNGNTYLEWYLQKPGQSPQLLIYKVSNRFSGVPDRFSGSGSGTDFTLKISRVEAEDVGVYYCFQGSHVPLTFGQGTKLEIK
notes: as the heavy chain of Sm3; light chain of Sm3 with this change; numbers count from the chain's first residue; source: Brevibacillus, culture supernatant (ammonium sulfate precipitate); not shown: 6xHis, C-terminal, kept; 6xHN, C-terminal, kept
Kd [1]: < 1.44 nM
koff [1]: < 1e-05 s⁻¹
kon [1]: 6930 M⁻¹ s⁻¹
Kd [2]: 133 nM
koff [2]: 0.0047 s⁻¹
kon [2]: 35400 M⁻¹ s⁻¹

B2: toripalimab Fab L.S25A (Fab, V domains shown)
VH: QGQLVQSGAEVKKPGASVKVSCKASGYTFTDYEMHWVRQAPIHGLEWIGVIESETGGTAYNQKFKGRVTITADKSTSTAYMELSSLRSEDTAVYYCAREGITTVATTYYWYFDVWGQGTTVTVSS
VL: DVVMTQSPLSLPVTLGQPASISCRASQSIVHSNGNTYLEWYLQKPGQSPQLLIYKVSNRFSGVPDRFSGSGSGTDFTLKISRVEAEDVGVYYCFQGSHVPLTFGQGTKLEIK
notes: as for B1
Kd [1]: < 0.503 nM
koff [1]: < 1e-05 s⁻¹
kon [1]: 19900 M⁻¹ s⁻¹
Kd [2]: 65.2 nM
koff [2]: 0.00369 s⁻¹
kon [2]: 56600 M⁻¹ s⁻¹

B3: toripalimab Fab L.S25Y (Fab, V domains shown)
VH: QGQLVQSGAEVKKPGASVKVSCKASGYTFTDYEMHWVRQAPIHGLEWIGVIESETGGTAYNQKFKGRVTITADKSTSTAYMELSSLRSEDTAVYYCAREGITTVATTYYWYFDVWGQGTTVTVSS
VL: DVVMTQSPLSLPVTLGQPASISCRYSQSIVHSNGNTYLEWYLQKPGQSPQLLIYKVSNRFSGVPDRFSGSGSGTDFTLKISRVEAEDVGVYYCFQGSHVPLTFGQGTKLEIK
notes: as for B1
Kd [1]: 1.93 nM
koff [1]: 1.18e-05 s⁻¹
kon [1]: 6090 M⁻¹ s⁻¹
Kd [2]: 125 nM
koff [2]: 0.00412 s⁻¹
kon [2]: 32900 M⁻¹ s⁻¹

B4: toripalimab Fab L.S26A (Fab, V domains shown)
VH: QGQLVQSGAEVKKPGASVKVSCKASGYTFTDYEMHWVRQAPIHGLEWIGVIESETGGTAYNQKFKGRVTITADKSTSTAYMELSSLRSEDTAVYYCAREGITTVATTYYWYFDVWGQGTTVTVSS
VL: DVVMTQSPLSLPVTLGQPASISCRSAQSIVHSNGNTYLEWYLQKPGQSPQLLIYKVSNRFSGVPDRFSGSGSGTDFTLKISRVEAEDVGVYYCFQGSHVPLTFGQGTKLEIK
notes: as for B1
Kd [1]: 0.802 nM
koff [1]: 1.95e-05 s⁻¹
kon [1]: 24300 M⁻¹ s⁻¹
Kd [2]: 75 nM
koff [2]: 0.00379 s⁻¹
kon [2]: 50500 M⁻¹ s⁻¹

B5: toripalimab Fab L.S26Y (Fab, V domains shown)
VH: QGQLVQSGAEVKKPGASVKVSCKASGYTFTDYEMHWVRQAPIHGLEWIGVIESETGGTAYNQKFKGRVTITADKSTSTAYMELSSLRSEDTAVYYCAREGITTVATTYYWYFDVWGQGTTVTVSS
VL: DVVMTQSPLSLPVTLGQPASISCRSYQSIVHSNGNTYLEWYLQKPGQSPQLLIYKVSNRFSGVPDRFSGSGSGTDFTLKISRVEAEDVGVYYCFQGSHVPLTFGQGTKLEIK
notes: as for B1
Kd [1]: < 0.573 nM
koff [1]: < 1e-05 s⁻¹
kon [1]: 17500 M⁻¹ s⁻¹
Kd [2]: 152 nM
koff [2]: 0.00675 s⁻¹
kon [2]: 44500 M⁻¹ s⁻¹

B6: toripalimab Fab L.Q27A (Fab, V domains shown)
VH: QGQLVQSGAEVKKPGASVKVSCKASGYTFTDYEMHWVRQAPIHGLEWIGVIESETGGTAYNQKFKGRVTITADKSTSTAYMELSSLRSEDTAVYYCAREGITTVATTYYWYFDVWGQGTTVTVSS
VL: DVVMTQSPLSLPVTLGQPASISCRSSASIVHSNGNTYLEWYLQKPGQSPQLLIYKVSNRFSGVPDRFSGSGSGTDFTLKISRVEAEDVGVYYCFQGSHVPLTFGQGTKLEIK
notes: as for B1
Kd [1]: < 0.831 nM
koff [1]: < 1e-05 s⁻¹
kon [1]: 12000 M⁻¹ s⁻¹
Kd [2]: 219 nM
koff [2]: 0.00876 s⁻¹
kon [2]: 40100 M⁻¹ s⁻¹

B7: toripalimab Fab L.Q27Y (Fab, V domains shown)
VH: QGQLVQSGAEVKKPGASVKVSCKASGYTFTDYEMHWVRQAPIHGLEWIGVIESETGGTAYNQKFKGRVTITADKSTSTAYMELSSLRSEDTAVYYCAREGITTVATTYYWYFDVWGQGTTVTVSS
VL: DVVMTQSPLSLPVTLGQPASISCRSSYSIVHSNGNTYLEWYLQKPGQSPQLLIYKVSNRFSGVPDRFSGSGSGTDFTLKISRVEAEDVGVYYCFQGSHVPLTFGQGTKLEIK
notes: as for B1
Kd [1]: < 0.342 nM
koff [1]: < 1e-05 s⁻¹
kon [1]: 29200 M⁻¹ s⁻¹
Kd [2]: 216 nM
koff [2]: 0.0122 s⁻¹
kon [2]: 56500 M⁻¹ s⁻¹

B8: toripalimab Fab H.M34Y (Fab, V domains shown)
VH: QGQLVQSGAEVKKPGASVKVSCKASGYTFTDYEYHWVRQAPIHGLEWIGVIESETGGTAYNQKFKGRVTITADKSTSTAYMELSSLRSEDTAVYYCAREGITTVATTYYWYFDVWGQGTTVTVSS
VL: DVVMTQSPLSLPVTLGQPASISCRSSQSIVHSNGNTYLEWYLQKPGQSPQLLIYKVSNRFSGVPDRFSGSGSGTDFTLKISRVEAEDVGVYYCFQGSHVPLTFGQGTKLEIK
notes: heavy chain of Sm3 with this change; numbers count from the chain's first residue; as the light chain of Sm3; source: Brevibacillus, culture supernatant (ammonium sulfate precipitate); not shown: 6xHis, C-terminal, kept; 6xHN, C-terminal, kept
Kd [1]: < 0.414 nM
koff [1]: < 1e-05 s⁻¹
kon [1]: 24200 M⁻¹ s⁻¹
Kd [2]: 164 nM
koff [2]: 0.00793 s⁻¹
kon [2]: 48500 M⁻¹ s⁻¹
